Assay [1] has as its target T1, human IL-18Rβ ECD Fc fusion (118-AP-100, R&D Systems) (human, UniProt O95256 20-356).
T1 construct: Bought protein; also called hIL-18Rβ; recombinant human IL-18Rb; not shown: Fc tag of the bought fusion protein, not described
T1 sequence: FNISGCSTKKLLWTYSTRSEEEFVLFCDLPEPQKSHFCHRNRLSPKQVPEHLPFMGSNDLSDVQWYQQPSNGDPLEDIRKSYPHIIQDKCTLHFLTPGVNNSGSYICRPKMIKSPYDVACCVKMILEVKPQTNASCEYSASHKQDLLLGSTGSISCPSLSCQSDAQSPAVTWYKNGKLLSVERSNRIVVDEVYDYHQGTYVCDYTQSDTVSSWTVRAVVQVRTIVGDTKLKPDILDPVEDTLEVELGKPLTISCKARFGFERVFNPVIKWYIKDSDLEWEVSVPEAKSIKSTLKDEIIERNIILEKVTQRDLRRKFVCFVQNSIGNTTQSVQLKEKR
The assay is described as follows: ELISA on recombinant human IL-18Rβ, normalised OD 450 nm, Fab with PBS or with saturating IgG 3131 [top plot]. The text has this:
(§1) The results are presented in FIG. 9, in which the binding signals for purified. […] Error bars represent standard deviation of replicate measurements.
Background: An ELISA detects its analyte on a solid surface through an enzyme-linked reagent.

Assay [2] concerns the target T1, human IL-18Rβ ECD Fc fusion …. The assay is described as follows: ELISA on recombinant human IL-18Rβ, normalised OD 450 nm, Fab with PBS or with saturating IgG 3131 [middle plot].
Description: as §1

B1: 3131 AM2-1 (Fab, V domains shown)
VH: EVQLVESGGGLVQPGGSLRLSCAASGFNLYYSSMHWVRQAPGKGLEWVASIYSSYGYTYYADSVKGRFTISADTSKNTAYLQMNSLRAEDTAVYYCARSSFSHGYGWYGLDYWGQGTLVTVSS
VL: DIQMTQSPSSLSASVGDRVTITCRASQSVSSAVAWYQQKPGKAPKLLIYSASSLYSGVPSRFSGSRSGTDFTLTISSLQPEDFATYYCQQYGYHHAGLITFGQGTKVEIK
notes: Fab
For B1, the binding result in assay [1] is “binds”.

B2: 3131 AM2-6 (Fab, V domains shown)
VH: EVQLVESGGGLVQPGGSLRLSCAASGFNLYYSSMHWVRQAPGKGLEWVASIYSSHGGTNYADSVKGRFTISADTSKNTAYLQMNSLRAEDTAVYYCARSSFSHGYGWYGLDYWGQGTLVTVSS
VL: DIQMTQSPSSLSASVGDRVTITCRASQSVSSAVAWYQQKPGKAPKLLIYSASSLYSGVPSRFSGSRSGTDFTLTISSLQPEDFATYYCQQYGYHYAGLITFGQGTKVEIK
notes: Fab
As to B2, the binding result in assay [1] was “binds”.

B3: 3131 AM2-18 (Fab, V domains shown)
VH: EVQLVESGGGLVQPGGSLRLSCAASGFNLYYSSMHWVRQAPGKGLEWVASIYSSGGSTSYADSVKGRFTISADTSKNTAYLQMNSLRAEDTAVYYCARSSFSHGYGWYGLDYWGQGTLVTVSS
VL: DIQMTQSPSSLSASVGDRVTITCRASQSVSSAVAWYQQKPGKAPKLLIYSASSLYSGVPSRFSGSRSGTDFTLTISSLQPEDFATYYCQQYGYHYAGLITFGQGTKVEIK
notes: Fab
For B3, the binding result in assay [2] is listed as “binds”.

B4: 3131 AM2-24 (Fab, V domains shown)
VH: EVQLVESGGGLVQPGGSLRLSCAASGFNLYYSSMHWVRQAPGKGLEWVASIYSSYGYTYYADSVKGRFTISADTSKNTAYLQMNSLRAEDTAVYYCARSSFSHGYGWYGLDYWGQGTLVTVSS
VL: DIQMTQSPSSLSASVGDRVTITCRASQSVSSAVAWYQQKPGKAPKLLIYSDSSLYSGVPSRFSGSRSGTDFTLTISSLQPEDFATYYCQQYGYHYAGLITFGQGTKVEIK
notes: Fab
Take B4: the binding result in assay [2] is “binds”.

B5: 3131 AM2-7 (Fab, V domains shown)
VH: EVQLVESGGGLVQPGGSLRLSCAASGFNLYYSSMHWVRQAPGKGLEWVASIYSSHGGTYYADSVKGRFTISADTSKNTAYLQMNSLRAEDTAVYYCARSSFSHGYGWYGLDYWGQGTLVTVSS
VL: DIQMTQSPSSLSASVGDRVTITCRASQSVSSAVAWYQQKPGKAPKLLIYSASSLYSGVPSRFSGSRSGTDFTLTISSLQPEDFATYYCQQYGYHDAGLITFGQGTKVEIK
notes: Fab
With B5, the binding result in assay [1] was “binds”.

B6: 3131 AM2-2 (Fab, V domains shown)
VH: EVQLVESGGGLVQPGGSLRLSCAASGFNLYYSSMHWVRQAPGKGLEWVASIYSSHGRTGYADSVKGRFTISADTSKNTAYLQMNSLRAEDTAVYYCARSSFSHGYGWYGLDYWGQGTLVTVSS
VL: DIQMTQSPSSLSASVGDRVTITCRASQSVSSAVAWYQQKPGKAPKLLIYSASSRDSGVPSRFSGSRSGTDFTLTISSLQPEDFATYYCQQYGYHYAGLITFGQGTKVEIK
notes: Fab
In the case of B6, the binding result in assay [1] is “binds”.

B7: 3131 AM2-5 (Fab, V domains shown)
VH: EVQLVESGGGLVQPGGSLRLSCAASGFNLYYSSMHWVRQAPGKGLEWVASIYSSSGDTHYADSVKGRFTISADTSKNTAYLQMNSLRAEDTAVYYCARSSFSHGYGWYGLDYWGQGTLVTVSS
VL: DIQMTQSPSSLSASVGDRVTITCRASQSVSSAVAWYQQKPGKAPKLLIYSASSLYSGVPSRFSGSRSGTDFTLTISSLQPEDFATYYCQQYGYHYAGLITFGQGTKVEIK
notes: Fab
Take B7: the binding result in assay [1] is listed as “binds”.

B8: 3131 AM2-14 (Fab, V domains shown)
VH: EVQLVESGGGLVQPGGSLRLSCAASGFNLYYSSMHWVRQAPGKGLEWVASIYSSYGYTYYADSVKGRFTISADTSKNTAYLQMNSLRAEDTAVYYCARSSFSHGYGWYGLDYWGQGTLVTVSS
VL: DIQMTQSPSSLSASVGDRVTITCRASQSVSSAVAWYQQKPGKAPKLLIYSASSLYSGVPSRFSGSRSGTDFTLTISSLQPEDFATYYCQQYGYHGAGLITFGQGTKVEIK
notes: Fab
Regarding B8, the binding result in assay [1] is “binds”.

B9: 3131 AM2-15 (Fab, V domains shown)
VH: EVQLVESGGGLVQPGGSLRLSCAASGFNLYYSSMHWVRQAPGKGLEWVASIYSSSGDTGYADSVKGRFTISADTSKNTAYLQMNSLRAEDTAVYYCARSSFSHGYGWYGLDYWGQGTLVTVSS
VL: DIQMTQSPSSLSASVGDRVTITCRASQSVSSAVAWYQQKPGKAPKLLIYSASSLYSGVPSRFSGSRSGTDFTLTISSLQPEDFATYYCQQYGYHYAGLITFGQGTKVEIK
notes: Fab
In the case of B9, in assay [2], the binding result was “binds”.

B10: 3131 AM2-9 (Fab, V domains shown)
VH: EVQLVESGGGLVQPGGSLRLSCAASGFNLYYSSMHWVRQAPGKGLEWVASIYSSYGYTYYADSVKGRFTISADTSKNTAYLQMNSLRAEDTAVYYCARSSFSHGYGWYGLDYWGQGTLVTVSS
VL: DIQMTQSPSSLSASVGDRVTITCRASQSVSSAVAWYQQKPGKAPKLLIYSASSLYSGVPSRFSGSRSGTDFTLTISSLQPEDFATYYCQQYGYHNAGLITFGQGTKVEIK
notes: Fab
On to B10, for which the binding result in assay [1] is on record as “binds”.

B11: 3131 AM2-13 (Fab, V domains shown)
VH: EVQLVESGGGLVQPGGSLRLSCAASGFNLYYSSMHWVRQAPGKGLEWVASIYSSYGYTYYADSVKGRFTISADTSKNTAYLQMNSLRAEDTAVYYCARSSFSHGYGWYGLDYWGQGTLVTVSS
VL: DIQMTQSPSSLSASVGDRVTITCRASQSVSSAVAWYQQKPGKAPKLLIYSASSLYSGVPSRFSGSRSGTDFTLTISSLQPEDFATYYCQQYGYHDAGLITFGQGTKVEIK
notes: Fab
B11: the binding result in assay [1] is listed as “binds”.

B12: 3131 AM2-3 (Fab, V domains shown)
VH: EVQLVESGGGLVQPGGSLRLSCAASGFNLYYSSMHWVRQAPGKGLEWVASIYSSSGYTSYADSVKGRFTISADTSKNTAYLQMNSLRAEDTAVYYCARSSFSHGYGWYGLDYWGQGTLVTVSS
VL: DIQMTQSPSSLSASVGDRVTITCRASQSVSSAVAWYQQKPGKAPKLLIYSASSLYSGVPSRFSGSRSGTDFTLTISSLQPEDFATYYCQQYGYHYAGLITFGQGTKVEIK
notes: Fab
As for B12, the binding result in assay [1] is “binds”.

B13: 3131 AM2-4 (Fab, V domains shown)
VH: EVQLVESGGGLVQPGGSLRLSCAASGFNLYYSSMHWVRQAPGKGLEWVASIYSSSGSTCYADSVKGRFTISADTSKNTAYLQMNSLRAEDTAVYYCARSSFSHGYGWYGLDYWGQGTLVTVSS
VL: DIQMTQSPSSLSASVGDRVTITCRASQSVSSAVAWYQQKPGKAPKLLIYSASSLYSGVPSRFSGSRSGTDFTLTISSLQPEDFATYYCQQYGYHYAGLITFGQGTKVEIK
notes: Fab
Turning to B13, in assay [1], the binding result is listed as “binds”.

B14: 3131 AM2-17 (Fab, V domains shown)
VH: EVQLVESGGGLVQPGGSLRLSCAASGFNLYYSSMHWVRQAPGKGLEWVASIYSSHGNTDYADSVKGRFTISADTSKNTAYLQMNSLRAEDTAVYYCARSSFSHGYGWYGLDYWGQGTLVTVSS
VL: DIQMTQSPSSLSASVGDRVTITCRASQSVSSAVAWYQQKPGKAPKLLIYSASSLYSGVPSRFSGSRSGTDFTLTISSLQPEDFATYYCQQYGYHYAGLITFGQGTKVEIK
notes: Fab
Regarding B14, the binding result in assay [2] was “binds”.

B15: 3131 AM2-21 (Fab, V domains shown)
VH: EVQLVESGGGLVQPGGSLRLSCAASGFNLYYSSMHWVRQAPGKGLEWVASIYSSYGYTYYADSVKGRFTISADTSKNTAYLQMNSLRAEDTAVYYCARSSFSHGYGWYGLDYWGQGTLVTVSS
VL: DIQMTQSPSSLSASVGDRVTITCRASQSVSSAVAWYQQKPGKAPKLLIYSGSSGRSGVPSRFSGSRSGTDFTLTISSLQPEDFATYYCQQYGYHYAGLITFGQGTKVEIK
notes: Fab
B15: the binding result in assay [2] is on record as “binds”.

Values taken from patent US20240262919A1 (SHANGHAITECH UNIVERSITY, published 2024).
